Measured values as given in paper PMC5973619.

Molecular target: T1, Sun2 (human (endogenous in HeLa and RPE-1)), Q9UH99
T1 chain: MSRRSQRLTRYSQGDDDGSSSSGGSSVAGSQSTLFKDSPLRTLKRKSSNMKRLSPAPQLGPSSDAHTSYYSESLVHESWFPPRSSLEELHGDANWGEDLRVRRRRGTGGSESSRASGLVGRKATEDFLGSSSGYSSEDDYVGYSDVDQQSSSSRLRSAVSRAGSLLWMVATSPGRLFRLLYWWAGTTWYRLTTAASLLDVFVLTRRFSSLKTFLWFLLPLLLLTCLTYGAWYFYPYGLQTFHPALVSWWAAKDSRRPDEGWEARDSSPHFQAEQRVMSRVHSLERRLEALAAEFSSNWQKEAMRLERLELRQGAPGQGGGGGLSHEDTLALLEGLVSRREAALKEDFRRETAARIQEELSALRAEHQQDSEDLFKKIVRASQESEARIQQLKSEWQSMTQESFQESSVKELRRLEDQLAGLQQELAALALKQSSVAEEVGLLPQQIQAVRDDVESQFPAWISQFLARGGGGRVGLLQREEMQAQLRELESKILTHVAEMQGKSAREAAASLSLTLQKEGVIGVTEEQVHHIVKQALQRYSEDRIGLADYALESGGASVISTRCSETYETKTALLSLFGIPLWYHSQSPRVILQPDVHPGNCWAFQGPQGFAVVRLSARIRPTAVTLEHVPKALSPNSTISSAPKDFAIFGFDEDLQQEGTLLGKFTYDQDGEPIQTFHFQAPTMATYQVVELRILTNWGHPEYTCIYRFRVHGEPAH
Assay: cross-linking; HeLa cells in PBS containing .5% formaldehyde for 10min room temperature before lysis; reducing SDS-PAGE and blot for Sun1 and Sun2
Conditions: remark: other sources report otherwise

stoichiometry N: 3
B1: Sun2, Q9UH99 1-717 (natural protein)
chain: MSRRSQRLTRYSQGDDDGSSSSGGSSVAGSQSTLFKDSPLRTLKRKSSNMKRLSPAPQLGPSSDAHTSYYSESLVHESWFPPRSSLEELHGDANWGEDLRVRRRRGTGGSESSRASGLVGRKATEDFLGSSSGYSSEDDYVGYSDVDQQSSSSRLRSAVSRAGSLLWMVATSPGRLFRLLYWWAGTTWYRLTTAASLLDVFVLTRRFSSLKTFLWFLLPLLLLTCLTYGAWYFYPYGLQTFHPALVSWWAAKDSRRPDEGWEARDSSPHFQAEQRVMSRVHSLERRLEALAAEFSSNWQKEAMRLERLELRQGAPGQGGGGGLSHEDTLALLEGLVSRREAALKEDFRRETAARIQEELSALRAEHQQDSEDLFKKIVRASQESEARIQQLKSEWQSMTQESFQESSVKELRRLEDQLAGLQQELAALALKQSSVAEEVGLLPQQIQAVRDDVESQFPAWISQFLARGGGGRVGLLQREEMQAQLRELESKILTHVAEMQGKSAREAAASLSLTLQKEGVIGVTEEQVHHIVKQALQRYSEDRIGLADYALESGGASVISTRCSETYETKTALLSLFGIPLWYHSQSPRVILQPDVHPGNCWAFQGPQGFAVVRLSARIRPTAVTLEHVPKALSPNSTISSAPKDFAIFGFDEDLQQEGTLLGKFTYDQDGEPIQTFHFQAPTMATYQVVELRILTNWGHPEYTCIYRFRVHGEPAH
